According to the RNAGym collection of RNA variant scans (doi:10.1073/pnas.2313332121):
Fewer inactive variants are shown than the library holds.

B1: TPR 5TU (parent)
chain: GGAUCUUCUCGAUCUAACAAAAAAGACAAAUCUGCCACAAAGCUUGAGAGCAUCUUCGGAUGCAGAGGCGGCAGCCUUCGGUGGCGCGAUAGCGCCAACGUUCUCAACUAUGACACGCAAAACGCGUGCUCCGUUGAAUGGAGUUUAUCAUG

Variants of: B1
Assay: polymerase ribozyme fitness, log enrichment relative to wild type (log ratio); higher = more active; in vitro selection for triplet polymerase activity
Procedure, shortened: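 Genotype fitness is the logarithm of its enrichment divided by wild-type enrichment, using inverse-variance-weighted averages of replicates. That logarithm is base 2. Enrichment was measured by Illumina sequencing of input and output libraries from one triplicate in vitro selection round, with frozen incubation at −7 °C, on PCR-built, transcribed mutant libraries of each subunit of a heterodimeric triplet polymerase ribozyme, retaining genotypes with ≥10 input reads and ≥1 read per output.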

| Variant | polymerase ribozyme fitness (log ratio) |
| --- | --- |
| GGAUCAUCUCGAUUUAACAAAAAAGACAAAUCUGCCACAAUGCUUGAUAGCAUCUUCGGAUGCAGAGGCGGCAGCCUUCGGUGGCGCGAUAGCGCCAACGUUCUCAACUAUGACACGCAAAACGCGUGCUCCGUUGAAUGGAGUUUAUCAUG [U6A C14U A41U G48U] | -3.87 |
| GGAUCAUCUCGAUCUAACAAAAAAGACCAAUCUGCCACAAAGCAAGAGUGCAUCUUCGGAUGCAGAGGCGGCAGCCUUCGGUGGGGCGAUAGCGCCAACGUUCUCAACUAUGACACGCAAAACGCGUGCUCCGUUGAAUGGAGAUUAUCAUG [U6A A28C U44A U45A A49U C85G U144A] | ≤ -4.2 |
| GGAUCAUCUCGAUCUAAUACACAAGACAAAUCUGCCACAAAGCCUGAGAGCAUCAUCGGAUGCAGAGGCGGCAGCCUUCGGUGGCGAGAUAGCGCCAACGUUCUCAACUAUGACACGCAAAACGCGUGCUCCGUUGAAUGGAGUUUAUCAUG [U6A C18U A20C A22C U44C U55A C87A] | ≤ -4.2 |
| GGAUCAUCUCGAUCUAACAAAAAAGACAAAUCUGCCACAACGCUAGAGGGCAUCUUCGUAUGCAGAGGCGGCAGCCUUCGGUGGCACGAUAGCGCCAACGUUCUCAACUAUGACACGCAAAACGCGUGCUCCGUUGAAUGGAGUUUAUCAUG [U6A A41C U45A A49G G59U G86A] | ≤ -4.2 |
| GGAUCAUCUCGAUUUAACAAAAAAGACAAAUCUGCCACAAAGCUUGAGAGCAUCUUCGGAUGCAUAGGCGGCAGCCUUCGGUGGCGCGAUGGCGCCAACGUUCUCAACUAUGACACGCAAAACGCGUGCUCCGUUGAAUGGAGUUUAACAUG [U6A C14U G65U A91G U148A] | ≤ -4.2 |
| GGAUCAUCUCGAUCUAACAAUAAAGACAAAUCUGCCACAAAGCUUGAGAGCAUCUUCGGAUGCAGAGGCGGCAGCAUUCGGUGGCUCGAUAGCGCCAACGUUCUCAACUAUGACACGCAAAACGCGUGCUCCGUUGAAUGGAGUUUAUCAUG [U6A A21U C76A G86U] | -2.79 |
| GGAUCAUCUAGAUCUAACAAAAAAGACAAAACUGCCACAAAGCUUGAGCGCAACUUCGGAUGCAGAGGCGGCAGCGUUCGAUGGCGCGAUAACGCCAACGUUCUCGACUAUGACACACAAAACGCGUGCUCCGUUGAAUGGAGUUUAUCAUG [U6A C10A U31A A49C U53A C76G G81A G92A A106G G117A] | ≤ -4.2 |
| GGAUCAUCUCGAUCUAACAUAAAAGAUAAAUCUGCCACAAAGCUUAAGAGCAUCUUCGGAUGCAGAGGCGGCAGCCUUCGGUGGCGAGAUAGCGCCAACGUUCUCAACUAUGACACGCAAAACGCGUGCUCCGUUGAAUGGAGUUUAUCAUG [U6A A20U C27U G46A C87A] | ≤ -4.2 |
| GGAUCAUCUCGAUCUAACAAAAAAGACAAAUCUGCCACAAAGCUUGAGACCCUCUUCGGAUGCAGAGGCGGCAGCCUUCGGUGGCGCGAUAGCGCCAACGUUCUCAACUAUGACACGCAAAACGCGUGCUCCGUUGAAUGGAGUUUAUCAUG [U6A G50C A52C] | ≤ -4.2 |
| GGAUCAUCUCGAUCUAACAAAAAAGACAAAUCUGCCACAAAGCUUGAGAGCAUCUUCGGCUGCAGAGGCGGCAGCCUUCGGUGGCGCGAUAGCGCCAACGUUCUCAACUAUGACACGCAAAACGCGUGCUCCGUUGAAUGGGGUUUAUCAUG [U6A A60C A142G] | -3.03 |
| GGAUCAUCUCGAUCUAACAAAAAAGACAAAUCUGCCACAAAGCUUGAGAGCAUCUUCGGAUGCAGAGGCGGCAGCCUUCGGUGGCGCGAUCGCGCCAACGUUCUCAACUAUGACACGCAAAACGCGUGCUCCGUUGAAUGGAGUUUAUCAUG [U6A A91C] | ≤ -4.2 |
| GGAUCAUCUCGAUCUAACAAUAAAGACAAAACUGCCACAAAGCUUGAGAGCAUCUUCGGAUGCAGAGGCGGCAACCUUCGGUGGCGCGAUAGCGCCAACGUUCUCAACUAUGACACGCAAAACGCGUGCUCCGUUGAAUGGAGUUUAUCAUG [U6A A21U U31A G74A] | ≤ -4.2 |
| GGAUCAUCUCGAUCUAACAGAAAAGACAAAUCUGCCACAAAGCUUGAGAGCAUCUACGGAUGCAGAGGCGGCAGCCUUCGGUGGCGCUAUAGCGCCAACGUAGUCAACUAUGACACGCAAAACGCGUGCUCAGUUGAAUGGAGUUGAUCAUG [U6A A20G U56A G88U U102A C103G C132A U146G] | ≤ -4.2 |
| GGAUCAUCUCGAUCUAUCAAAAAAGACAAAUCUGCCACAAAGCUUGAGAGCAUCUUCGGAUGCAAAGGCGGCAGCCUUCGGUAUCGAGAUAGCGCCAACAUUCUCAACUAUGACACGCAAAACGCGUGCUCCGUUGAAUGAAGUUUAUCAUG [U6A A17U G65A G83A G84U C87A G100A G141A] | ≤ -4.2 |
| GGAUCAUCUCGAUCUAACAAAAAAGACAAAUCUGCCACAAAGCUUGAGAGCAUCUUCGGAUGCAGAGGCGGCAGCCUUCGGUGGCGCGAUAGUGCCAACGUUCUCAACUAUGACACGCAAAACGCGUGCUCCGUUGAAUGGAGUUUAUCAUG [U6A C93U] | -1.6 |
| GGAUCAUCUCGAUCUAACAAAAAAGACAAAUCUGCCACAAAGCUUGAGAGCAUCUUCGGAUGCAGAGGCGGCAGCCUUCGGUGGCGCGAUAGGGCCAACGUUCUCAACUAUGACACGCAAAACGCGUGCUCCGUUGAAUGGAGUUUAUCAUG [U6A C93G] | -3.92 |
| GGAUCAUCUCGAUCUAACAAAAAAGACAAAUCUGCCACAAAGCUUGAGAGAAUCUUCCGAUGGAGAGGCGGCAGCCUUCGGUGGCGCGAUAGGGCCAACGUUCGCAACUAUGACACGCAAAACGCGUGCUCCGUUGAAUGGAGUAUACCAUG [U6A C51A G58C C63G C93G U104G U145A U148C] | ≤ -4.2 |
| GGAUCAUCUCGAUUUAACAAAAAAGACAAAUCUGCCACAAAGCUUGAGAGCAUCUUCGGAUGCAGAGGCGGCAGCCUUCGGCGGCACGAUAGCGCCAACGUUCUCAACUAUGACACGCAAAACGCGUGCUCCGUUGAAUGGAGUUUAUCAUG [U6A C14U U82C G86A] | -4.09 |
| GGAUCAUCUCGAUCUAACAAAAAAGACAAAUCUGCCACAAAGCUUGAGAGCAUCUUCGGGUGCAGAGGCGGCAGCAUUCGGUGGCGCGAUAGCGCCAACGUUCUCAACUAUGACACGCAAAACGCGUGCUCCGUUGAAUGGAGCUUAUCAUG [U6A A60G C76A U144C] | -0.452 |
